Experimental data as given in US20250115680A1 (PROFOUNDBIO US, published 2025).

T1: human PTK7 on the surface of PTK7-expressing tumor cell lines (human, UniProt Q13308 31-1070)
T1 sequence (looked up): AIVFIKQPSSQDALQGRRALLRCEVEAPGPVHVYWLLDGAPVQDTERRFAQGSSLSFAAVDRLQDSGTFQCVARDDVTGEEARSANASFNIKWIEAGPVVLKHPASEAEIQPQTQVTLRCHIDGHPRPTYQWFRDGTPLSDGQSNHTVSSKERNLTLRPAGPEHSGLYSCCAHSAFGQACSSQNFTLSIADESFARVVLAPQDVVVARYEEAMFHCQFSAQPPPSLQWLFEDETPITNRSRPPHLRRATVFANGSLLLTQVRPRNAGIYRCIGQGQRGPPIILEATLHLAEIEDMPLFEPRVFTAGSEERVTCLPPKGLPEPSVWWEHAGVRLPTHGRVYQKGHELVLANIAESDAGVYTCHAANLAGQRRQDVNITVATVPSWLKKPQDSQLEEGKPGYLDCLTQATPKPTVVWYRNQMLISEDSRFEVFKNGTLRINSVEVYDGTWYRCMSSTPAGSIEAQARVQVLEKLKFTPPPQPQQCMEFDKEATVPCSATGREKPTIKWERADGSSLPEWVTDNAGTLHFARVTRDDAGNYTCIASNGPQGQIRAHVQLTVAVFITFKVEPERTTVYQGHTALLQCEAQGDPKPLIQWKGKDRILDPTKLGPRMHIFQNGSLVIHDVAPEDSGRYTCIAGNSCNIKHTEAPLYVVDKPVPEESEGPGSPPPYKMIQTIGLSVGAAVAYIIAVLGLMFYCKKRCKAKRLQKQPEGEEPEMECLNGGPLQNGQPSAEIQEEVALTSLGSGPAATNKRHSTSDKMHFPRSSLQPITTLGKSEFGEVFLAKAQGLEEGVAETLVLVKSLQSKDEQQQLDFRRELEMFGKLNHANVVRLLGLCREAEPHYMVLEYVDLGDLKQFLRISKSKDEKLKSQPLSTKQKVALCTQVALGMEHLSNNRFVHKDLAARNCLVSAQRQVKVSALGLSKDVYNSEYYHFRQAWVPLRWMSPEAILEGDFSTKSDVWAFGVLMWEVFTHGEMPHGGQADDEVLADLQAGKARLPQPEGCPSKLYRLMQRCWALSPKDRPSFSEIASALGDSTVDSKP

T2: human PTK7 extra-cellular domain (ECD) linked to His tag (human, UniProt Q13308 31-704)
T2 construct: extracellular domain; also called hPTK7-his; human PTK7-his protein; not shown: His tag
T2 sequence (looked up): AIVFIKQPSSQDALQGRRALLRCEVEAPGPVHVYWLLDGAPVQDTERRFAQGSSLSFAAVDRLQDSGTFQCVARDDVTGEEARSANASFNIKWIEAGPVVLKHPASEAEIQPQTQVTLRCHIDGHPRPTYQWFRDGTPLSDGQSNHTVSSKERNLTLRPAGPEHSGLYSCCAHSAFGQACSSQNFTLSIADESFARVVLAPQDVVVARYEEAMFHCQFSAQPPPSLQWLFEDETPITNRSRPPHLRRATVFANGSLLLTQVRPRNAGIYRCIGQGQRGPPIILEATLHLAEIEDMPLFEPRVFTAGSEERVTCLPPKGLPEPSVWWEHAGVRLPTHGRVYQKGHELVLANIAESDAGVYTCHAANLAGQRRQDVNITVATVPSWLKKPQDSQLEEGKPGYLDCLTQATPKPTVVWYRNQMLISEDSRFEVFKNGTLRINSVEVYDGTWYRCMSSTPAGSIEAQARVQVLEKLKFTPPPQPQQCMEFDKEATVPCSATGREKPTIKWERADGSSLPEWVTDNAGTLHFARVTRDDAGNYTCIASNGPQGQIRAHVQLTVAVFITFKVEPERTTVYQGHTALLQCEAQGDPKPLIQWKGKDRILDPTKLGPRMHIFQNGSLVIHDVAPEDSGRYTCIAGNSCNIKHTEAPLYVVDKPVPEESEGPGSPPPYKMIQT

B1: PRO1107 (2C8-LD343 (8)) (other)
VH: QIQLVQSGAEVKKPGASVKVSCKASGYTFTTYGMSWVRQAPGQGLEWMGWINTHSGVPTYVDEFKGRVTMTLDTSTSTAYMELSSLRSEDTAVYYCARSPFDYGSRGAWFVYWGQGTTVTVSS
VL: DVVMTQSPDSLAVSLGERATINCRSSQSIVHNSGDTYLEWYQQKPGQPPKLLIYKVSNRFPGVPDRFSGSGSGTDFTLTISSLQAEDLAVYYCFQGSHVPWTFGGGTKVEIK
modifications: drug-linker LD343 (MMAE payload) coupled to cysteines of the TCEP-reduced antibody; DAR 7.5 by LC-MS; the chain carrying each drug is not stated
B2: murine antibody m2C5 (antibody, V domains shown)
VH: EVQLLSSGPELVTPGASVKISCKASGYTFTDYYINWLKQSHGKSLEWIGDINPNSGGPVYNQKFMAKATLTVDKTSNTAYMELRSLTSEDSAVYYCARGDYYGSNYNYWGQGTTLTVSS
VL: DILLTQSPAILSVSPGERVSFSCRASQNIGTSIHWYQQRTNGSPRLLIKFASESISGIPSRFSGSGSGTDFALTINSVESEDIADYYCQQSNNWPYTFGGGTKLEIK
notes: Mouse hybridoma clone, tested as culture supernatant
B3: murine antibody m2C8 (antibody, V domains shown)
VH: QIQLVQSGPELKKPGETVKISCKASGYTFTTYGMSWVKQAPGKGLKWMGWINTHSGVPTYVDEFKGRSAFSLETSASTAYLQINNLKNEDTATYFCARSPFDYGSRGAWFVYWGQGTLVTVSS
VL: DVLMTQTPLSLPVSLGDQASISCRSSQSIVHNNGDTYLEWYLQKPGQSPKLLIYKVSNRFPGVPDRFSGSGSGTDFTLKISRVEAEDLGLYYCFQGSHVPWTFGGGTKLEIK
notes: as for B2
B4: murine antibody m13C4 (antibody, V domains shown)
VH: EVKLVESGGGLVKPGGSLKLSCAASGFAFSTYDMFWFRQTPEKRLEWVATISSGGGYTYYPGSVKGRFTISRDNARNTLYLQMSSLRSEDTALYYCVRPLLRDSYFYFDVWGAGTTVTVSS
VL: DIVMTQSPAIMSTSPGEKVTMTCRASSSVSSSYLHWYQQKSGASPKLWIFRTSNLASGVPARFSGSGSGTSYSLTISSVEAEDAATYYCQQYSGYPLTFGAGTKLELK
notes: as for B2

Assays:
[1] = biological target: T1, human PTK7 on the surface of …; assay: cell-based or functional assay
[2] = biological target: T1, human PTK7 on the surface of …; assay: flow cytometry on MDA-MB-468 cells
[3] = biological target: T2, human PTK7 extra-cellular domain (ECD) …; assay: ELISA screening of hybridoma supernatants on human PTK7-his
Procedure: The cells were resuspended with an appropriate amount of electroporation buffer to ensure the cell concentration of about 2×10⁷ cells/mL. The cell suspension was added to a 9 mL electroporation tank for fusion. After fusion, the cell suspension was transferred to 20 mL RPMI 1640 complete medium containing 20% FBS and then left at room temperature for 20 min. The fused cells were resuspended with RPMI 1640 medium containing 1×HAT, 1×BIOMYC3, and 20% FBS. The cell suspension was added to several 96-well cell culture plates at 100 ul/well to ensure that the cell volume per well was about 5×10⁴ cells/well, and the plates were placed in a 37° C. cell incubator. After 7 days, additional 100 μL of RPMI 1640 complete medium containing 20% FBS, 1×HAT, and 1×BIOMYC-3 was added to each well. After 10 days, the cell culture supernatants from hybridoma parent clones were collected and used for screening by binding to human and cynomolgus monkey PTK7-his protein by ELISA.

Row | Binder | IC50 of in vitro cytotoxicity (Cell-titre Glo, 96 h), Detroit 562 cells [1] [nM] | IC50 of in vitro cytotoxicity (Cell-titre Glo, 96 h), MDA-MB-468 cells [1] [nM] | IC50 of in vitro cytotoxicity (Cell-titre Glo, 96 h), OVCAR-3 cells [1] [nM] | IC50 of in vitro cytotoxicity (Cell-titre Glo, 96 h), PA-1 cells [1] [nM] | IC50 of in vitro cytotoxicity (Cell-titre Glo, 96 h), SNG-M cells [1] [nM] | IC50 of in vitro cytotoxicity (Cell-titre Glo, 96 h), SW780 cells [1] [nM] | binding result [2] | binding result [3]
1 | B1 | 8.2 | 0.00014 | 0.0011 | 0.008 | 0.02 | 27.4 | – | –
2 | B2 | – | – | – | – | – | – | binds | binds
3 | B3 | – | – | – | – | – | – | binds | binds
4 | B4 | – | – | – | – | – | – | binds | binds
